Among the data in US20110028686A1 (published 2011) are Kd values, retold here.

Some targets named below: pP53-02; pP53-01; pP53-04; pP53-03.
Common to all, as to test: fluorescence polarization

B1: GST-MDM2 (other)
chain: MCNTNMSVPTDGAVTTSQIPASEQETLVRPKPLLLKLLKSVGAQKDTYTMKEVLFYLGQYIMTKRLYDEKQQHIVYCSNDLLGDLFGVPSFSVKEHRKIYTMIYRNLVVVNQQESSDSGTSVSENRCHLEGGSDQKDLVQELQEEKPSSSHLVSRPSTSSRRRAISETEENSDELSGERQRKRHKSDS
B1: the Kd with pP53-02 turned out to be 766 nM; in the assay with pP53-01, 2800 nM; with pP53-04, 334 nM; in the assay with pP53-03, 546 nM.
